Measured values as given in publication PMC3308923 (2012).

Target: H6MA-CA, His-tagged matrix-capsid (MAp17-CAp24) domains of the HIV-1 Gag precursor (HIV-1 (pNL4-3))
Experiment: ITC

B1: Ank^GAG1D4 (designed binder)
chain: DLGKKLLEAARAGQDDEVRLLLEHGADVNARDSIGSTPLHLAAYYGHLEIVRLLLEHGADVNARDSTGTTPLHYAARLGHLEIVRLLLEHGADVNARDAMGWTPLHLAAKKGHLEIVRLLLKHGADVNANDHFGKTAFDISIDNGNEDLAEILQSFNHHHHHH
With B1 the Kd was 1090 nM.
